Source: patent publication US20140348865A1, “[…] ON AN HIV-1 V1V2 SITE-OF-VULNERABILITY” (The United States of America, as represented by the …, priority 2011, published 2014)

Key:
[1] = biological target: Env of HIV-1 strain BG 1168 (pseudovirus) (HIV-1); assay: cell-based or functional assay
[2] = biological target: Env of HIV-1 strain 398 (pseudovirus) (HIV-1); assay: cell-based or functional assay
[3] = biological target: Env of HIV-1 strain 6631 (pseudovirus) (HIV-1); assay: cell-based or functional assay
[4] = biological target: Env of HIV-1 strain 3873 (pseudovirus) (HIV-1); assay: cell-based or functional assay
[5] = biological target: Env of HIV-1 strain CNE56 (pseudovirus) (HIV-1); assay: cell-based or functional assay
[6] = biological target: Env of HIV-1 strain QH0515 (pseudovirus) (HIV-1); assay: cell-based or functional assay
[7] = biological target: Env of HIV-1 strain CNE30 (pseudovirus) (HIV-1); assay: cell-based or functional assay
[8] = biological target: Env of HIV-1 strain ZM135 (pseudovirus) (HIV-1); assay: cell-based or functional assay
[9] = biological target: Env of HIV-1 strain A03349M1 (pseudovirus) (HIV-1); assay: cell-based or functional assay
[10] = biological target: Env of HIV-1 strain JRFL (pseudovirus) (HIV-1); assay: cell-based or functional assay
[11] = biological target: Env of HIV-1 strain 7165.18 (pseudovirus) (HIV-1); assay: cell-based or functional assay
[12] = biological target: Env of HIV-1 strain 0439 (pseudovirus) (HIV-1); assay: cell-based or functional assay
[13] = biological target: Env of HIV-1 strain CNE4 (pseudovirus) (HIV-1); assay: cell-based or functional assay
[14] = biological target: Env of HIV-1 strain RHPA (pseudovirus) (HIV-1); assay: cell-based or functional assay
[15] = biological target: Env of HIV-1 strain QH209 (pseudovirus) (HIV-1); assay: cell-based or functional assay
[16] = biological target: Env of HIV-1 strain T251-18 (pseudovirus) (HIV-1); assay: cell-based or functional assay
[17] = biological target: Env of HIV-1 strain X2088 (pseudovirus) (HIV-1); assay: cell-based or functional assay
[18] = biological target: Env of HIV-1 strain 6322 (pseudovirus) (HIV-1); assay: cell-based or functional assay
[19] = biological target: Env of HIV-1 strain 6471 (pseudovirus) (HIV-1); assay: cell-based or functional assay
[20] = biological target: Env of HIV-1 strain 6405 (pseudovirus) (HIV-1); assay: cell-based or functional assay
[21] = biological target: linked dimers of the gp120 V1/V2 domain; assay: gel filtration shift
[22] = biological target: epitope-scaffold 2ZJR_A; assay: ELISA, PG9 dilution series
[23] = biological target: gp120 of HIV-1 strain 16055, full length (HIV-1); assay: ELISA, PG9 dilution series
[24] = biological target: epitope-scaffold 1VH8_C; assay: ELISA, PG9 dilution series
[25] = biological target: epitope-scaffold 2ZJR_B; assay: ELISA, PG9 dilution series
[26] = biological target: 1JO8-ZM109 V1V2 scaffold; assay: ELISA, PG9 dilution series
[27] = biological target: linked dimers of the gp120 V1/V2 domain; assay: SPR
[28] = biological target: epitope-scaffold 2ZJR_A; assay: ELISA, antibody dilution series on the scaffold
[29] = biological target: 1X3E; assay: ELISA, antibody dilution series on the scaffold
[30] = biological target: 1JO8-ZM109 V1V2 scaffold; assay: ELISA, antibody dilution series on the scaffold

## monoclonal antibody PG9
[1]
  neutralization IC50, Env-pseudovirus, TZM-bl cells: > 50 µg/mL
[2]
  neutralization IC50, Env-pseudovirus, TZM-bl cells: > 50 µg/mL
[3]
  neutralization IC50, Env-pseudovirus, TZM-bl cells: > 50 µg/mL
[4]
  neutralization IC50, Env-pseudovirus, TZM-bl cells: > 50 µg/mL
[5]
  neutralization IC50, Env-pseudovirus, TZM-bl cells: > 50 µg/mL
[6]
  neutralization IC50, Env-pseudovirus, TZM-bl cells: > 50 µg/mL
[7]
  neutralization IC50, Env-pseudovirus, TZM-bl cells: > 50 µg/mL
[8]
  neutralization IC50, Env-pseudovirus, TZM-bl cells: > 50 µg/mL
[9]
  neutralization IC50, Env-pseudovirus, TZM-bl cells: > 50 µg/mL
[10]
  neutralization IC50, Env-pseudovirus, TZM-bl cells: > 50 µg/mL
[11]
  neutralization IC50, Env-pseudovirus, TZM-bl cells: > 50 µg/mL
[12]
  neutralization IC50, Env-pseudovirus, TZM-bl cells: > 50 µg/mL
[13]
  neutralization IC50, Env-pseudovirus, TZM-bl cells: > 50 µg/mL
[14]
  neutralization IC50, Env-pseudovirus, TZM-bl cells: > 50 µg/mL
[15]
  neutralization IC50, Env-pseudovirus, TZM-bl cells: > 50 µg/mL
[16]
  neutralization IC50, Env-pseudovirus, TZM-bl cells: > 50 µg/mL
[17]
  neutralization IC50, Env-pseudovirus, TZM-bl cells: > 50 µg/mL
[18]
  neutralization IC50, Env-pseudovirus, TZM-bl cells: > 50 µg/mL
[19]
  neutralization IC50, Env-pseudovirus, TZM-bl cells: > 50 µg/mL
[20]
  neutralization IC50, Env-pseudovirus, TZM-bl cells: > 50 µg/mL
[21]
  percent active for PG9 binding: 100%
[22]
  EC50 (read off the curve): 0.01 µg/mL
[23]
  EC50 (read off the curve): 0.004 µg/mL
[24]
  EC50 (read off the curve): 0.03 µg/mL
[25]
  EC50 (read off the curve): 0.01 µg/mL
[26]
  EC50 (read off the curve): 0.03 µg/mL
[27]
  Kd: < 1 µM
[28]
  EC50 (read off the curve): 0.3 µg/mL
[29]
  EC50 (read off the curve): 1 µg/mL
[30]
  EC50 (read off the curve): 0.5 µg/mL
